The target in this assay is T1, Recombinant Human TNF-α (Strathmann Biotec AG, hTNFa-1000, Lot 090590) (human, UniProt P01375 77-233).
T1 construct: Bought protein; runs at 17.0 kDa on SDS-PAGE; also called cachectin
The assay is described as follows: ELISA, hybridoma culture supernatant on coated proteins (cross-reactivity test). In general terms: ELISA stands for enzyme-linked immunosorbent assay.

T1 sequence (P01375 77-233 limits assumed): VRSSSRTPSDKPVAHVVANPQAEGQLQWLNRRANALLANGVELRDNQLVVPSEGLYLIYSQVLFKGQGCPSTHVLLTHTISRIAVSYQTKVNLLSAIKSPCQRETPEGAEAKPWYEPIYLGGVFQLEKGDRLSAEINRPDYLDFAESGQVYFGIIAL

B1: ETNF-6 antibody (antibody, V domains shown)
VH: EVQLQQSGPELVKPGASVKISCKASGYSFTAFYMHWVKQSHVKSLEWIGRINPYNGATSYNQNFKAKASLTVDKSSSTAYMELHSLTSEDSAVYYCARSEDWDKTMDYWGQGTSVTVS
VL: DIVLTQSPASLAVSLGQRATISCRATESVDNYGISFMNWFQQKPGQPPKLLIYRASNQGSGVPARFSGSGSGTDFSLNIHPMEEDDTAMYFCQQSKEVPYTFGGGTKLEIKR
notes: Mouse monoclonal antibody, tested as hybridoma culture supernatant; also called ETNF 6 monoclonal antibody
For B1, the binding result is given as “binds”.

The values are drawn from patent WO2007088823A1 (dated 2007).
